Assay: yeast display, Sf9 membrane polyspecificity reagent, FACS + sequencing; frameworks hold sequencing errors
Outline: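 Genes from sorted yeast were amplified by colony PCR, read by MiSeq 2 × 250 sequencing and filtered on CDR length. These cells carried a synthetic nanobody library in Saccharomyces cerevisiae BJ5465 and were sorted by FACS into low and high (top ~1%) gates on anti-HA and streptavidin fluorescence. Polyreactivity is labelled according to the gate of origin.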

Row | Sequence | polyreactivity (PSR sort gate)
1 | QVQLVESGGGLVQAGGSLRLSCAAYGSNLTWNDMGWYRQAPGKERELVAAIDVNDGSTYYADSVKGRFTISRDNAKNTVYLQMNRLKPEDTAVYYCAEPTDYTWLDSTLADDYWGQGTQVTVSS | low polyreactivity
2 | QVQLVESGGGLVQAGGSLRLSCAAYGSTFHYYSMGWYRQAPGKERELVAAISSSGVSTYYADSVKGRFTISRDYAKNTVYLQMNSLKPEDTAVYYCNRASVFHYRWYYYWGLGTQVTVSS | high polyreactivity
3 | QVQLVESGGGLVQAGGSLRLSCAAYGSTFYAYAMGWYRQAPGKERELVAAIDSGGSTYYADSVKGRFTISRDNAKNTVYLQMNSLKPEDTAVYYCAVRHRYTRAYWGRDYWGQGTQVTVSS | low polyreactivity
4 | QVQLVESGGGLVQAGGSLRLSCAAYGSTFYHKAMGWYRQAPGKERELVARITRGGSTDYADSVKGRFTISRDNAKNTVYLQMNSRKPEDTAVYYCAAAIGHFERFYWGQGTQVTVSS | low polyreactivity
5 | QVQLVESGGGLVQAGGSLRLSCAAYGSTFYVYAMGWYRQAPGKESELVAAITSAGSTNYADSVKGRFTISRDNAKYTVYLQMNSLKPEDTAVYYCAVYFDTFYGHMYYWGQCTQVTVSS | low polyreactivity
6 | QVQLVESGGGLVQAGGSLRLSCAAYSYVMGGYRQAPGKERELVAAISQSGGSTYYADSVKGRFTISRDNAKNTVYLQMNTLKPEDTAVYYCAASYQVRYDYWGQGTQVTVSS | high polyreactivity
7 | QVQLVESGGGLVQAGGSLRLSCAAYSYVMGWYRQAPGKERELVAAISQSGGSTYYADSVKGRFTISRDNAKNTVYLQMNSLKPEDTAVYYCAARREPYQYNQYYSWGQGTQVTVSS | high polyreactivity
8 | QVQLVESGGGLVQAGGSLRLSCACSGSTFRWYTMGWYRQAPGKECELVAAISISGTSTYYADSVNGRFTISRDNAKNTVYLQMNSLTPEDTAVYYCAADPPSRWGDYWGQGTQVTVSS | high polyreactivity
9 | QVQLVESGGGLVQAGGSLRLSCADSGFIFSHNVMGWYRQAPGKERELVAAISASGGSTYYADSVKGRFTISRDNAKNTVYLQMNSLKPEDTAVYYCAKVTWGTVWYRSPSEYDYWGQGTQVTVSS | low polyreactivity
10 | QVQLVESGGGLVQAGGSLRLSCADSGFIFTPYTMGWYRQAPGKERELVAAITDGSSTYYADSVKGRFTISRDNAKYTVYLQINSLKPEDTAVYYCNADGKPPYISWLYDYWGQGTQVTVSS | low polyreactivity
11 | QVQLVESGGGLVQAGGSLRLSCADSGFISDWYAMGWYRQAPGKERELVATIDWIGGSTYADSVKGRFTISRDNAKNTVYLQMNSMKPEDTAVYYCNAYAFDSVREEDYWGQGTQVTVSS | low polyreactivity
12 | QVQLVESGGGLVQAGGSLRLSCADSGFTFSWYTMGWYRQAPGKERELVAAITVSGGSTYYADSVKGRFTISRDYAKNTVYLQMNSLKPEDTAVYYCNAQDPFTYYSSSPTYDYWGQGTQVTVSS | low polyreactivity
13 | QVQLVESGGGLVQAGGSLRLSCADSGFTFYTYTMGWYRPAPGKERELVAVISRSGGSTYYADSVKGRFTISRDNAKNTVYLQMNSVKPEDTAVYYCNAGYWRFIDSYDYWGQGTQVTVSS | high polyreactivity
14 | QVQLVESGGGLVQAGGSLRLSCADSGGTFGYYVMGWNRQAPGKERELVAAITSGGSTKYADSVKGRFTISRDNAKNTVYLQMNSLKPEDTAVYYCAADYPYYPFSSIYDYWGQGTQVTVSS | low polyreactivity
15 | QVQLVESGGGLVQAGGSLRLSCADSGIIFAYYAMGWYRQAPGKERELVAAITGGGVRTYYADSVKGRFTISRDNAKNTVYLQMNSLKPEDTAVYDCIATGSTASGRVNYWGQGTQVTVSS | high polyreactivity
16 | QVQLVESGGGLVQAGGSLRLSCADSGIIFAYYDMGWYRQAPGKERELVASISSTGGSTYYADSVKGRFTISSDNAKNTVYLQMNSLKPEDTAVYYCAVDGLPPKDALHLYYYWGQGTQVTVSS | low polyreactivity
17 | QVQLVESGGGLVQAGGSLRLSCADSGIIFRYYSMGWYRQAPGKESEFVAAITGSSGSTYADSVKGRFTISRDNAKNTVYLQMNSLKPEDTAVYYCNADSYSIWVYGEYDYWGLGTQVTVSS | high polyreactivity
18 | QVQLVESGGGLVQAGGSLRLSCADSGIIFWRYAMGWYRQAPGKERELVATITSGGSTDYADSVKGRFTISRDNAKNTVYLQMNSLKPEDTAVYYCAALGYATGYWRYYYWGQGTQVTVSS | low polyreactivity
19 | QVQLVESGGGLVQAGGSLRLSCADSGITFAPYAMGWSRQAPGKERELVATITWSGGSTYYADSVKGRFTISRDNAKNTVYLQMNSLKPEDTAVYYCAAYNDTVPSAAHIYESWGQGTQVTVSS | low polyreactivity
20 | QVQLVESGGGLVQAGGSLRLSCADSGITFGVYAMGWYRQAPGKERELVAAISRRGASTYYADSVKGRFTISRDNAKNTVYLQMNSLKPEDTAVYYCAAYLARRQYDYWGQGTQVTVSS | high polyreactivity
21 | QVQLVESGGGLVQAGGSLRLSCADSGITFSDYAMGWYRQAPGKERELVAAISARGGSTYYADSVKGRFTISRDNAKNTVYLQMNSLKPEDTAVYYCAADKRTPYYSRAGMDYWGQGTQVTVSS | low polyreactivity
22 | QVQLVESGGGLVQAGGSLRLSCADSGLIFGRNAMGWYRQAPGKERELVAAITSGGSTYYADSVKGRFTISRDNAKNTVYLQRNSLKPEDTAVYYCAADVVDLYLLDYWGQGTQVTVSS | low polyreactivity

Row | Sequence | polyreactivity (PSR sort gate)
23 | QVQLVESGGGLVQAGGSLRLSCADSGLIFKYYAMGWYRQAPGKERELVAVITSSGGSTYYADSVKGRFTISRDNAKNTVYLQMNSLKPEDTAVYYCAARRVRWPYDYWGQGTQVTVSS | high polyreactivity
24 | QVQLVESGGGLVQAGGSLRLSCADSGLIFWAYAMGWYRQEPGTERELVAAINWRGGSTYYADSVKGRFTISRDTAKNTVYLQMNSLKPEDTAVYYCAADSYYDEYDYWGQGTQVTVSS | low polyreactivity
25 | QVQLVESGGGLVQAGGSLRLSCADSGLTFGSNGMGWYRQAPGKERELVAAISRGGSTSYAVSVKGRFTISRDNAKNTVYLQMNSLKPEDTAVYYCAARSYRYSYRYRAFDYWGQGSQVTVSS | high polyreactivity
26 | QVQLVESGGGLVQAGGSLRLSCADSGLTFWAYAMGWYRQAPGKARELVAGISSGVSTYYADSVKGRFTISRDNAKNTFYLQMNSLKPEDTEVYYCAAYVYTWYYYDVGYWGQGTQVTVSS | high polyreactivity
27 | QVQLVESGGGLVQAGGSLRLSCADSGQNAMGWYRQAPGKERELVAAISRGGDSTYYADSVKGRFTISRDNAKNSVYLQMNSLKPEDTAVYYCAASYYRRYGYNYWGQGTQVTVSS | high polyreactivity
28 | QVQLVESGGGLVQAGGSLRLSCADSGRHFSFNMGWYRQAPGKERELVAAISRRGGSTYYADSVKGRFTISRDNAKNTVYLQMNSLKPEYTAVYYCAVIPRQTYSGGGYDYWGQGTQVTVSS | high polyreactivity
29 | QVQLVESGGGLVQAGGSLRLSCADSGRIFDFNAMGWYRQAPGKERELVASIDWSGGNTYYADSVKGRFTISRDNAKNTVYVQMNSLKPEDTAVYYCNRDFWGVWEYDYWGQGTQVTVSS | low polyreactivity
30 | QVQLVESGGGLVQAGGSLRLSCADSGRIFFKYAMGWYRQAPGKERELVASISRRGGSTTYADSVKGRFTISRDNAKNTVYLQMNSLKPEDTAVYYCNTVSWWGRNYQDEYYYWGQGTQVTVSS | high polyreactivity
31 | QVQLVESGGGLVQAGGSLRLSCADSGRIFGPYAMGWYRQAPGKERELVAAISGGGRTDYADSVKGRFTISRDNAKNTVYLQMNSLKPEDTAVYYCNADYTYWNGWFATRDYWGQGTQVTVSS | low polyreactivity
32 | QVQLVESGGGLVQAGGSLRLSCADSGRIFRGNGMGWSRQAPGKEREFVDAISRGDGNTYYADSVKGRFTISRDNAKNTVYLQMNSLKPEDTAVYSCAAGGYGYYDFPQYNYWGQGTQVTVSS | low polyreactivity
33 | QVQLVESGGGLVQAGGSLRLSCADSGRTFGPYAMGWYRQAPGKERELVAAITSSGGSTYYADSVKGRFTISRDNAKNTVSLQMNSLKPEDTAVYYCNKLYWRQSQDYDYWGQGTQVTVSS | low polyreactivity
34 | QVQLVESGGGLVQAGGSLRLSCADSGRTIYRNGMGWYRKAPGKEREFVAAINYRGGSTNYADSVKWRFTISRDKAKNTVYLQMNSLKPEDTAVYYCATRIFRAALRFDYWGQGTQVTVSS | high polyreactivity
35 | QVQLVESGGGLVQAGGSLRLSCADSGSIFDGNAMGWYRQAPGKERALVAAISRRGGSTYYADSVKGRFTISRDKAKNTVYLQMNSLKPEDTAVYYCNAYLSYFDGNYWGQGTQVTVSS | high polyreactivity
36 | QVQLVESGGGLVQAGGSLRLSCADSGSIFDVNVMGWYRQAPAKERELVASINISGASTYYADSVKGRLTISRDNAKNTVSLQMNSLKPEDTAVYYCAGTYGVPSFRYGYWGQGTQVTVSS | low polyreactivity
37 | QVQLVESGGGLVQAGGSLRLSCADSGSIFPFYAMGWYRQAPGKERELVASISSGGSTNYADSVKGRFTISRDNAKKTVYLQMNSLKPEDTAVYYCNAVGTFVRYGTDGRDGVNYDYWGQGTQVTVSS | low polyreactivity
38 | QVQLVESGGGLVQAGGSLRLSCADSGSIFQYYVRGCYRQAPGKERELVAAIRRSGTTYYADSVKGRFTISRDNAKNTVYLQMNSLKTEDTAVDYCNKVRCQEPSNYDYWVQGTQVTVSS | low polyreactivity
39 | QVQLVESGGGLVQAGGSLRLSCADSGSIFRDNVMGWYRQAPGKEREFVAAISRRGGITYYADSVKGRFTISRDNAKNTVYLQMNSLKPEDTAVYYCATTGGRQYGYWGQGTQVTVSS | high polyreactivity
40 | QVQLVESGGGLVQAGGSLRLSCADSGSIFSKYAMGWYRQAPGKERELVAAISRSGGRTYYADSVKGRFTISRDNAKNTVYLQMNSLKPEDTAVYYCAADRSYYTWFGGDYWGQGTQVTVSS | high polyreactivity
41 | QVQLVESGGGLVQAGGSLRLSCADSGSIFVYNAMGWYRQAPGKERELVAAITTGGSTNYADSVKGRFTISRDNAKNTVYLQMISLKPEDTAVYYCAVEGYPGRYRDPGDLYYYWGQGTQVTLSS | low polyreactivity
42 | QVQLVESGGGLVQAGGSLRLSCADSGSIFWGNAMGWYRQAPGKERELVAAITRGGSTYYADSVKGRFTISRDNAKNTVYLQMNSLTPEDTAVYYWAVLSRRYAAYDYWGLGTQVTVSS | high polyreactivity
43 | QVQLVESGGGLVQAGGSLRLSCADSGSIFYTYAMGWYRPAPGKERELVAAITRSGGSTNYADSVKGRFTITRDNAKYTVYLQMNSLKPEDNAVYYCAAVFNWAPYFYYYWGQRTQVTVSS | high polyreactivity

— the nanobody polyreactivity screen of Harvey et al. (2022)
